Measured values from the RNAGym collection of RNA variant scans (doi:10.1073/pnas.2313332121).

B1: TPR t1 (parent)
chain: GACCAAUCUGCCCUCAGAGCUCGAGAACAUCUUCGGAUGCAGAGGAGGCAGGCUUCGGUGGCGCGAUAGCGCCAACGUCCUCAACCUCCAAUGCAUCCCACCACAUGAUGAUGCCUGAAGAGCCUUGGUUUUUUG

Variants of: B1
Assay: polymerase ribozyme fitness, log enrichment relative to wild type (log ratio); higher = more active; in vitro selection for triplet polymerase activity
How it was run: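 Mutant libraries for each subunit of a heterodimeric triplet polymerase ribozyme were made by PCR and then transcribed. Each library underwent one round of in vitro selection in triplicate: annealing with a biotinylated primer, the partner subunit and triplets, frozen incubation at −7 °C, gel excision of extended constructs, streptavidin-bead capture and RT-PCR. Input and output libraries were Illumina-sequenced, and only genotypes with ≥10 input reads and ≥1 read per output were kept. Fitness is the logarithm, base 2, of genotype enrichment over wild-type enrichment, computed from inverse-variance-weighted replicate averages.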

Row | Variant | polymerase ribozyme fitness (log ratio)
1 | C49A A91C G127A | -3.35
2 | C49U C53U C79A G120A G128A | -3.2
3 | G23A G117U | -7.76
4 | C85U G113A | -2.02
5 | A24G A43G | -3.13
6 | C28U U129A | -3.1
7 | A2U G71U | -2.05
8 | G60A U130G | -0.663
9 | C8A C12G G61C C123A | -0.379
10 | U9G C99U C124A U131G | -3.14
11 | G77U U78C A95U C123G | 0.706
12 | U55A C114U | -2.35
13 | C20G C97A U116C C123G | -5.78
14 | C15U G61C | -2.32
15 | A46U G61A G110U G120C G122A | -4.73
16 | C15G U112A | -1.44
17 | A95G A111C G113A A119C G120C | -3.77
18 | G45A G61U C70U G110U U125C | -3.2
19 | A50C C115A U132C | -0.367
20 | A46U C53U A84C C88U | -1.14
21 | C53A C115U A119U | 0.429

Row | Variant | polymerase ribozyme fitness (log ratio)
22 | C15A G48C | -3.05
23 | C12A A46C G60A C82G | -1.19
24 | G10U G52U U96G | -0.544
25 | A37G C40U | -1.48
26 | U9A G110C U130A | -4.06
27 | U78A C123U | 1.1
28 | U78C G93U C124A | 0.632
29 | A24G C73A | -1.74
30 | G48U U59A U116C C124U | -0.336
31 | G69U C98A | -2.07
32 | U87C A103U | -3.8
33 | C12U G45A | -1.24
34 | C53G G61C A66C | -2.24
35 | A26G U112A | -0.933
36 | C70A C114A | -2.64
37 | G10A U55C C70U | -0.798
38 | C28G C40A C94U G110C | -0.668
39 | C102A G127A | -3.45
40 | A5G C56A A74G C97U C123A | 0.643
41 | U9A C13G A26C G63C G110A | -5.86
42 | G51A G113C G122U G135U | -7.38

Row | Variant | polymerase ribozyme fitness (log ratio)
43 | A43C C53U | -2.24
44 | U38C C53U U116A A121G | 0.589
45 | C86A A91U | -2.01
46 | C12U C22U C28U C124A | -4.02
47 | C12A C72U | -0.97
48 | A121C C123U | 0.54
49 | C62U U106C | -0.141
50 | U38A G69A | -4.51
51 | A68G U81A C99U A111U C124U | -5.02
52 | C4U A18U U55G C86U | -2.79
53 | C53A C99A G117C A118G | -7.29
54 | A24G C97U G120U | -2.28
55 | C34U U54A G61A | -4.4
56 | G39U G110C A121C | -4.8
57 | G10A C40A A111C | -1.11
58 | C11A G52C A74C A111C | -1.71
59 | U78A C124G | 1.42
60 | C31U C70U C72U | -5.69
61 | C4U C72G C94G G113A G122U | -3.87
62 | C12U G63U U78A C79U | 0.0353
63 | U38A C101A A119U A121U G122U | -2.88

Row | Variant | polymerase ribozyme fitness (log ratio)
64 | C13U C22A A26C C56G G122A | -4.98
65 | G45U G93U A100C C104A | -6.03
66 | G60A C94A G128C | -3.09
67 | C22G G117A A119G | -1.55
68 | C11U C73A | -0.524
69 | C49G U130A | -1.8
70 | C70U C115A | 0.108
71 | C8G G60U C102U | -0.641
72 | C31G G120C | -5.91
73 | C89A A111G | -1.35
74 | C11A A29U G36A C124U | -4.08
75 | C40G G48U | -1.55
76 | C11A G47A C62A | -3.74
77 | A27G G48U | -2.47
78 | C12A A16U G44C C94U G117C U129G | -5.45
79 | G36A C64G C104G G110A G127U | -6.24
80 | A6U C64U U92G | -3.05
81 | C15G U32C A43G G45U C89G | -4.49
82 | G52U U133G | -1.42
83 | C12U G51A G71C C79U C101A | -5.68
